Experimental data reported in article PMC12921663, “NanoBondy Reaction through NeissLock Anhydride Allows Covalent Immune Cell Decoration” (Bioconjugate Chemistry, 2026).

Columns and labels:
[1] = target: T1, endogenous human CD45 at the cell surface (Homo sapiens, UniProt P08575-4); test: flow cytometry on cells; nanobodies incubated with Expi293F, NK92 or YTS cells; detected with anti-VHH-Alexa Fluor 647; settings: one partner purified
T1 construct: CD45, human, endogenous; also called CD45RO; source: endogenous, on YTS and NK92 cells and on primary human CD8+ T cells
T1 sequence (P08575 other isoform, or with tags, fused parts or gaps): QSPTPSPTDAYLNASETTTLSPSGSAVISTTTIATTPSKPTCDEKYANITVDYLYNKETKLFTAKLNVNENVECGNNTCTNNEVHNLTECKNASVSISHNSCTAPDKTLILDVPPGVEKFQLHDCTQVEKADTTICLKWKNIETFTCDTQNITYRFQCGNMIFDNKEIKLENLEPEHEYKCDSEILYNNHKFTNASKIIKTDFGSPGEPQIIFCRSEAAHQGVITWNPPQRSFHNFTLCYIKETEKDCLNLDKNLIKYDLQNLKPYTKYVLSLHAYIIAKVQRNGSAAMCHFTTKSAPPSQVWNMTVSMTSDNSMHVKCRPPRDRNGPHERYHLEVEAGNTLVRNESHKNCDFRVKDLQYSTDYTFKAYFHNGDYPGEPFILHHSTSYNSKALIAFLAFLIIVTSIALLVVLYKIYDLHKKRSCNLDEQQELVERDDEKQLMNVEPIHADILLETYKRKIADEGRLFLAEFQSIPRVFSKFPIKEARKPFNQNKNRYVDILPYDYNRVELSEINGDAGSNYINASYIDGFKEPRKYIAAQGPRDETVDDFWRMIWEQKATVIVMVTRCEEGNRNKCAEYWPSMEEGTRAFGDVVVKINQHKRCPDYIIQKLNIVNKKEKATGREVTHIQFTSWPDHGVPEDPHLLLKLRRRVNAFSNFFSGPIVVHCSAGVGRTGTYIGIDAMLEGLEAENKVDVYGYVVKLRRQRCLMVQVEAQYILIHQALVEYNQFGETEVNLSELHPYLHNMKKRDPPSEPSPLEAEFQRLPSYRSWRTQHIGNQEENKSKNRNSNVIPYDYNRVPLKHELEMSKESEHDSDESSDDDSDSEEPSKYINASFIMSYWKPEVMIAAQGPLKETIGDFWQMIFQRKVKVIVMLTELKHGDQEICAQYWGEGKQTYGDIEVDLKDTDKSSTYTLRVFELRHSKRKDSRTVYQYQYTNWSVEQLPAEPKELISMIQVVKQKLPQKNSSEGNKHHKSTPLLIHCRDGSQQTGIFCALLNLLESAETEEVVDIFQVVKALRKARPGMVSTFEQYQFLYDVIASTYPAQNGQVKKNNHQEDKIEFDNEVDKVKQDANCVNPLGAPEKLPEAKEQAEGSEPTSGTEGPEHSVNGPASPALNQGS

[2] = target: T2, CD45d1d2 (d1 and d2 domains of human CD45 linked to an AviTag) (Homo sapiens, biotin (site-specific, on the AviTag); N-linked glycosylation); test: ELISA; nanobodies coated on a plate, incubated with the indicated concentrations of biotinylated CD45d1d2; colorimetric detection (absorbance at 450 nm); settings: both partners purified
T2 construct: CD45, human, extracellular domains d1 and d2; Construct limits may stand in the Supporting Information; also called biotinylated human CD45 domains 1 and 2; source: Expi293F cells, purified
T2 chain: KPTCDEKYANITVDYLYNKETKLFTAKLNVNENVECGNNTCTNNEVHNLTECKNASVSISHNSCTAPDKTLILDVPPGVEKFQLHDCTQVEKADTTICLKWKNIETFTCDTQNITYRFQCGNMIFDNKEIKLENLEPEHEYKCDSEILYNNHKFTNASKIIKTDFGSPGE

binding result [1]: binds
binding result [2]: binds
B1: anti-CD45 nanobody 2H5 (VHH)
VHH: QVQLQESGGGLVQTGGSLTLSCVASGGTFSSYAMGWFRQAPGKEREFVAAIGGSGDSTYYADSVKGRFTISRDNAKNSVYLQMNSLKPEDTAVYYCQADPTMFHKLYYGINPNEYDYWGQGTLVTVSS
notes: VHH 2H5 against the d1d2 region of human CD45, from llama immunization; the source of the nanobodies is a cited earlier work
